The source of these data is US20230295310A1 (ABCELLERA BIOLOGICS, published 2023).

The target of the experiment is EGFR on HeLa cells (UniProt P00533 25-1210, limits assumed). Nature of the experiment: cell-based or functional assay.

B1: GOMP001_bsAb_032 (bispecific antibody, human IgG1, kappa, L234A L235A)
heavy 1: QGQLVESGGGVVQPGRSLRLSCAASGFTFRGFGMHWVRKAPGKGLEWVAIIYYDGKNKYYADEVKGRFTISRDNSKNTLYLQMNSLRAEDTAVYYCAKGGGYNWFDPWGQGTLVTVSSASTKGPSVFPLAPSSKSTSGGTAALGCLVADYFPEPVTVSWNSGALTSGVHTFPAVLQSSGLYSLSSVVTVPSSSLGTQTYICNVNHKPSNTKVDEKVEPKSCDKTHTCPPCPAPEAAGGPSVFLFPPKPKDTLMISRTPEVTCVVVDVSHEDPEVKFNWYVDGVEVHNAKTKPREEQYNSTYRVVSVLTVLHQDWLNGKEYKCKVSNKALPAPIEKTISKAKGQPREPQVYTLPPSREEMTDNQVSLTCLVKGFYPSDIAVEWESNGQPENNYKTTPPVLMSDGSFFLASKLTVDKSRWQQGNVFSCSVMHEALHNHYTQKSLSLSPG
light 1: RIQMTQSPSSLSASVGDRVTITCRASQSISTYLNWYQDKPGKAPKLLIYSASSLQSGVPSRFSGSGSGTDFTLTISNLQPEDFAIYYCQRSYSPPFTFGPGTKLDIRRTVAAPSVFIFPPSDKQLKSGTARVVCLLNNFYPREAKVQWKVDNALQSGNSQESVTEQDSKDSTYSLSSTLTLSKADYEKHKVYACEVTHQGLSSPVTKSFNRGEC
heavy 2: QVQLVQSGAEVKKPGASVKVSCKASGYTFTSHWMHWVRYAPGQGLEWIGEFNPSNGRTNYNEKFKSKATMTVDTSTNTAYMELSSLRSEDTAVYYCASRDYDYDGRYFDYWGRGTLVTVSSASTKGPSVFPLAPSSKSTSGGTAALGCLVKDYFPEPVTVSWNSGALTSGVHTFPAVLQSSGLYSLSSVVTVPSSSLGTQTYICNVNHKPSNTKVDKKVEPKSCDKTHTCPPCPAPEAAGGPSVFLFPPKPKDTLMISRTPEVTCVVVDVSHEDPEVKFNWYVDGVEVHNAKTKPREEQYNSTYRVVSVLTVLHQDWLNGKEYKCKVSNKALPAPIEKTISKAKGQPRRPRVYTLPPSREEMTKNQVSLVCLVKGFYPSDIAVEWESNGQPENNYKTTPPVLDSDGSFFLYSVLTVDKSRWQQGNVFSCSVMHEALHNHYTQKSLSLSPG
light 2: DIQMTQSPSSLSASVGDRVTITCSASSSVTYMYWYQRKPGDAPKLLIYDTSNLASGVPSRFSGSGSGTDYTFTISSLQPEDIATYYCQQWSSHIFTFGQGTKVEIKRTVAAPSVFIFPPSDEQLKSGTASVVCLLNNFYPREAKVQWKVDNALQSGNSQESVTEQDSKDSTYSLSSTLTLSKADYEKHKVYACEVTHQGLSSPVTKSFNRGEC
On to B1, for which the Max killing % worked out at 98.1% and the “X… HeLa EC50” value was 0.061 nM.

B2: GOMP001_bsAb_039 (bispecific antibody, human IgG1, kappa, L234A L235A)
heavy 1: QVQLVQSGAEVKKPGASVKVSCKASGYTFTSHWMHWVRKAPGQGLEWIGEFNPSNGRTNYNEEFKSKATMTVDTSTNTAYMELSSLRSEDTAVYYCASRDYDYDGRYFDYWGQGTLVTVSSASTKGPSVFPLAPSSKSTSGGTAALGCLVADYFPEPVTVSWNSGALTSGVHTFPAVLQSSGLYSLSSVVTVPSSSLGTQTYICNVNHKPSNTKVDEKVEPKSCDKTHTCPPCPAPEAAGGPSVFLFPPKPKDTLMISRTPEVTCVVVDVSHEDPEVKFNWYVDGVEVHNAKTKPREEQYNSTYRVVSVLTVLHQDWLNGKEYKCKVSNKALPAPIEKTISKAKGQPREPQVYTLPPSREEMTDNQVSLTCLVKGFYPSDIAVEWESNGQPENNYKTTPPVLMSDGSFFLASKLTVDKSRWQQGNVFSCSVMHEALHNHYTQKSLSLSPG
light 1: RIQMTQSPSSLSASVGDRVTITCSASSSVTYMYWYQDKPGKAPKLLIYDTSNLASGVPSRFSGSGSGTDYTFTISSLQPEDIATYYCQQWSSHIFTFGQGTKVEIKRTVAAPSVFIFPPSDKQLKSGTARVVCLLNNFYPREAKVQWKVDNALQSGNSQESVTEQDSKDSTYSLSSTLTLSKADYEKHKVYACEVTHQGLSSPVTKSFNRGEC
heavy 2: EVQLVESGGGLVKTGGSHRLSCVASGFSFKKAWMNWVRYAPGKGLEWVGRIKRNSDGGTTDYAARVKGRFILSRDDSKNTLYLQMNSLKTEDTAVYYCTTLDSSSWYVGYYYMDVWGRGTTVTVSSASTKGPSVFPLAPSSKSTSGGTAALGCLVKDYFPEPVTVSWNSGALTSGVHTFPAVLQSSGLYSLSSVVTVPSSSLGTQTYICNVNHKPSNTKVDKKVEPKSCDKTHTCPPCPAPEAAGGPSVFLFPPKPKDTLMISRTPEVTCVVVDVSHEDPEVKFNWYVDGVEVHNAKTKPREEQYNSTYRVVSVLTVLHQDWLNGKEYKCKVSNKALPAPIEKTISKAKGQPRRPRVYTLPPSREEMTKNQVSLVCLVKGFYPSDIAVEWESNGQPENNYKTTPPVLDSDGSFFLYSVLTVDKSRWQQGNVFSCSVMHEALHNHYTQKSLSLSPG
light 2: DIQMTQSPSSVSASVGDRVTITCRASQDINNWLAWYQRKPGDAPKILIYTASNLQSGVPSRFSGSGSGTDFTLTISSLQPEDFATYFCQQAHSLPITFGQGTRLEIKRTVAAPSVFIFPPSDEQLKSGTASVVCLLNNFYPREAKVQWKVDNALQSGNSQESVTEQDSKDSTYSLSSTLTLSKADYEKHKVYACEVTHQGLSSPVTKSFNRGEC
With B2, the Max killing % was 81.1% and the “X… HeLa EC50” value came to 0.374 nM.

B3: GOMP001_bsAb_038 (bispecific antibody, human IgG1, kappa, L234A L235A)
heavy 1: EVQLVESGGVLVKTGGSLRLSCVASGFSFKKAWMNWVRKAPGKGLEWVGRIKRNSDGGAADYAAEVKDRFTLSRDDSKNTLYLQMNSLKTEDTAVYYCTTLDSSSWYVGYYYMDVWGKGTTVTVSSASTKGPSVFPLAPSSKSTSGGTAALGCLVADYFPEPVTVSWNSGALTSGVHTFPAVLQSSGLYSLSSVVTVPSSSLGTQTYICNVNHKPSNTKVDEKVEPKSCDKTHTCPPCPAPEAAGGPSVFLFPPKPKDTLMISRTPEVTCVVVDVSHEDPEVKFNWYVDGVEVHNAKTKPREEQYNSTYRVVSVLTVLHQDWLNGKEYKCKVSNKALPAPIEKTISKAKGQPREPQVYTLPPSREEMTDNQVSLTCLVKGFYPSDIAVEWESNGQPENNYKTTPPVLMSDGSFFLASKLTVDKSRWQQGNVFSCSVMHEALHNHYTQKSLSLSPG
light 1: RIHMTQSPSSVSASLGDRVTFTCRASQNINNWLAWYQDKPGKAPKLLIYTASSLQSGVPSRFSGSGSGTDFTLTISSLQPDDFATYYCQQAHSLPITFGQGTRLGIKRTVAAPSVFIFPPSDKQLKSGTARVVCLLNNFYPREAKVQWKVDNALQSGNSQESVTEQDSKDSTYSLSSTLTLSKADYEKHKVYACEVTHQGLSSPVTKSFNRGEC
heavy 2: QVQLVQSGAEVKKPGASVKVSCKASGYTFTSHWMHWVRYAPGQGLEWIGEFNPSNGRTNYNEKFKSKATMTVDTSTNTAYMELSSLRSEDTAVYYCASRDYDYDGRYFDYWGRGTLVTVSSASTKGPSVFPLAPSSKSTSGGTAALGCLVKDYFPEPVTVSWNSGALTSGVHTFPAVLQSSGLYSLSSVVTVPSSSLGTQTYICNVNHKPSNTKVDKKVEPKSCDKTHTCPPCPAPEAAGGPSVFLFPPKPKDTLMISRTPEVTCVVVDVSHEDPEVKFNWYVDGVEVHNAKTKPREEQYNSTYRVVSVLTVLHQDWLNGKEYKCKVSNKALPAPIEKTISKAKGQPRRPRVYTLPPSREEMTKNQVSLVCLVKGFYPSDIAVEWESNGQPENNYKTTPPVLDSDGSFFLYSVLTVDKSRWQQGNVFSCSVMHEALHNHYTQKSLSLSPG
light 2: DIQMTQSPSSLSASVGDRVTITCSASSSVTYMYWYQRKPGDAPKLLIYDTSNLASGVPSRFSGSGSGTDYTFTISSLQPEDIATYYCQQWSSHIFTFGQGTKVEIKRTVAAPSVFIFPPSDEQLKSGTASVVCLLNNFYPREAKVQWKVDNALQSGNSQESVTEQDSKDSTYSLSSTLTLSKADYEKHKVYACEVTHQGLSSPVTKSFNRGEC
For the molecule B3, the Max killing % stood at 93.6% and the “X… HeLa EC50” value was 0.0331 nM.

B4: GOMP001_bsAb_037 (bispecific antibody, human IgG1, kappa, L234A L235A)
heavy 1: QVQLVQSGAEVKKPGASVKVSCKASGYTFTSHWMHWVRKAPGQGLEWIGEFNPSNGRTNYNEEFKSKATMTVDTSTNTAYMELSSLRSEDTAVYYCASRDYDYDGRYFDYWGQGTLVTVSSASTKGPSVFPLAPSSKSTSGGTAALGCLVADYFPEPVTVSWNSGALTSGVHTFPAVLQSSGLYSLSSVVTVPSSSLGTQTYICNVNHKPSNTKVDEKVEPKSCDKTHTCPPCPAPEAAGGPSVFLFPPKPKDTLMISRTPEVTCVVVDVSHEDPEVKFNWYVDGVEVHNAKTKPREEQYNSTYRVVSVLTVLHQDWLNGKEYKCKVSNKALPAPIEKTISKAKGQPREPQVYTLPPSREEMTDNQVSLTCLVKGFYPSDIAVEWESNGQPENNYKTTPPVLMSDGSFFLASKLTVDKSRWQQGNVFSCSVMHEALHNHYTQKSLSLSPG
light 1: RIQMTQSPSSLSASVGDRVTITCSASSSVTYMYWYQDKPGKAPKLLIYDTSNLASGVPSRFSGSGSGTDYTFTISSLQPEDIATYYCQQWSSHIFTFGQGTKVEIKRTVAAPSVFIFPPSDKQLKSGTARVVCLLNNFYPREAKVQWKVDNALQSGNSQESVTEQDSKDSTYSLSSTLTLSKADYEKHKVYACEVTHQGLSSPVTKSFNRGEC
heavy 2: EVQLVESGGVLVKTGGSLRLSCVASGFSFKKAWMNWVRYAPGKGLEWVGRIKRNSDGGAADYAARVKDRFTLSRDDSKNTLYLQMNSLKTEDTAVYYCTTLDSSSWYVGYYYMDVWGRGTTVTVSSASTKGPSVFPLAPSSKSTSGGTAALGCLVKDYFPEPVTVSWNSGALTSGVHTFPAVLQSSGLYSLSSVVTVPSSSLGTQTYICNVNHKPSNTKVDKKVEPKSCDKTHTCPPCPAPEAAGGPSVFLFPPKPKDTLMISRTPEVTCVVVDVSHEDPEVKFNWYVDGVEVHNAKTKPREEQYNSTYRVVSVLTVLHQDWLNGKEYKCKVSNKALPAPIEKTISKAKGQPRRPRVYTLPPSREEMTKNQVSLVCLVKGFYPSDIAVEWESNGQPENNYKTTPPVLDSDGSFFLYSVLTVDKSRWQQGNVFSCSVMHEALHNHYTQKSLSLSPG
light 2: DIHMTQSPSSVSASLGDRVTFTCRASQNINNWLAWYQRKPGDAPKLLIYTASSLQSGVPSRFSGSGSGTDFTLTISSLQPDDFATYYCQQAHSLPITFGQGTRLGIKRTVAAPSVFIFPPSDEQLKSGTASVVCLLNNFYPREAKVQWKVDNALQSGNSQESVTEQDSKDSTYSLSSTLTLSKADYEKHKVYACEVTHQGLSSPVTKSFNRGEC
On to B4, for which the Max killing % worked out at 83.6% and the “X… HeLa EC50” value turned out to be 0.174 nM.
